Test results from the supplement of paper PMC10065799, “High-throughput profiling of sequence recognition by tyrosine kinases and SH2 domains using bacterial peptide display” (eLife, 2023).

Tests used:
SHP2-C SH2 = assay: SH2 binding enrichment of the phosphorylated peptide, bacterial display (enrichment ratio); higher = better substrate or ligand; peptides without Tyr show the background
c-Src SH2 = assay: as above
Grb2 SH2 = Grb2 SH2 (UniProt P62993); assay: as above
EPHB1 = EPHB1 (UniProt P54762); assay: phosphorylation enrichment, bacterial display (enrichment ratio); higher = better substrate or ligand; peptides without Tyr show the background
Fes = Fes (UniProt P07332); assay: as above
FGFR3 = FGFR3 (UniProt P22607); assay: as above
Fyn = Fyn (UniProt P06241); assay: as above
MERTK = MERTK (UniProt Q12866); assay: as above
AncSZ = assay: as above
FGFR1 = FGFR1 (UniProt P11362); assay: as above
Hck = Hck (UniProt P08631); assay: as above
c-Abl (mouse) = assay: as above
c-Src = assay: as above
Jak2 = Jak2 (UniProt O60674); assay: as above
Fer (mouse) = assay: as above
EPHB2 = EPHB2 (UniProt P29323); assay: as above
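For SH2 binding enrichment of the phosphorylated peptide, bacterial display in this document: peptide library displayed on the E. coli surface as eCPX fusions, selected cells deep-sequenced, score is each peptide's frequency after selection divided by its frequency in the input.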
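For phosphorylation enrichment, bacterial display in this document: 11-residue human phosphosite peptides and single-mutation variants displayed on the E. coli surface, counted by deep sequencing, each peptide's frequency after selection divided by its frequency in the unselected input library; frequency after pTyr selection over input frequency; kinase dosed for 20-30% of maximal phosphorylation in three min.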

Fyn, sequence (P06241 whole entry, looked up): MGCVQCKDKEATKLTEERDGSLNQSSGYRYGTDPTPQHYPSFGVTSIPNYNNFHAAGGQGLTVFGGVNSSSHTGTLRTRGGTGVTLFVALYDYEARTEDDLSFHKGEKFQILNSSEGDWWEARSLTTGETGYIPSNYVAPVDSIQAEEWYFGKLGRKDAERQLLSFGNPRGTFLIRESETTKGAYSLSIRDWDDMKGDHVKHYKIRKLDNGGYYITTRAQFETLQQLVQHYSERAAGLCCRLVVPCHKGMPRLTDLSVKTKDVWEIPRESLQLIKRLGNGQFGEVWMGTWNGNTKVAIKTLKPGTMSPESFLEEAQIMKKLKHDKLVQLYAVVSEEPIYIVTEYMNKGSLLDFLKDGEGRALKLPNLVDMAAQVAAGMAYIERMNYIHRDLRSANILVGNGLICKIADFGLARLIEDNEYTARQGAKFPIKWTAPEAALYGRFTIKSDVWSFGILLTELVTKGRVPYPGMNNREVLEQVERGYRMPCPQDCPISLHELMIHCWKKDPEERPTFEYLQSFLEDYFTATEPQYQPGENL
MERTK, sequence (Q12866 whole entry, looked up): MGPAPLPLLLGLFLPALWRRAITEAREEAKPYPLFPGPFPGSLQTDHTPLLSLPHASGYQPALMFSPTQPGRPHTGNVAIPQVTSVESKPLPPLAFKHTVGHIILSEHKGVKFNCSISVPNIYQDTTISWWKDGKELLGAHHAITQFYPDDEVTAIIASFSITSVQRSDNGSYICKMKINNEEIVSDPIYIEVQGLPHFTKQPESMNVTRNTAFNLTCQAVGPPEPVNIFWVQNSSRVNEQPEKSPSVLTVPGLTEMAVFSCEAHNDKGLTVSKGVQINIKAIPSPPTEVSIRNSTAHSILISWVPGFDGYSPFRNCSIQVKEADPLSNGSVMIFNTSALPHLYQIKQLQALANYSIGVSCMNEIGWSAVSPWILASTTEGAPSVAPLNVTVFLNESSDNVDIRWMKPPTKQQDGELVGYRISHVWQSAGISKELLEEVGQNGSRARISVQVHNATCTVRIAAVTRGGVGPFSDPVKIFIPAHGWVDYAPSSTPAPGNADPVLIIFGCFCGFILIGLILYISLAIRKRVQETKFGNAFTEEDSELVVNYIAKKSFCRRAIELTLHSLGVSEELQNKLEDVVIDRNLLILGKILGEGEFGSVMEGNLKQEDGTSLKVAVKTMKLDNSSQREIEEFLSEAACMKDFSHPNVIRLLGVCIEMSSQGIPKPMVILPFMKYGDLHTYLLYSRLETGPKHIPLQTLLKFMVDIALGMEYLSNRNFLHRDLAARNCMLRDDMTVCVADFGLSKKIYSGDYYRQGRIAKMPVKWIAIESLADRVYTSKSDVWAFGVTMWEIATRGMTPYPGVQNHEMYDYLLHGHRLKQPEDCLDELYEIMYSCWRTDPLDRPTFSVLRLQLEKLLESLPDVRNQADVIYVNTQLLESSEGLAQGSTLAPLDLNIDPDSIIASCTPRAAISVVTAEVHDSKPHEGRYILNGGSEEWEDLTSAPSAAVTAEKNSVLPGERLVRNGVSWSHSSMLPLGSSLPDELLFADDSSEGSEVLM
EPHB1, sequence (P54762 whole entry, looked up): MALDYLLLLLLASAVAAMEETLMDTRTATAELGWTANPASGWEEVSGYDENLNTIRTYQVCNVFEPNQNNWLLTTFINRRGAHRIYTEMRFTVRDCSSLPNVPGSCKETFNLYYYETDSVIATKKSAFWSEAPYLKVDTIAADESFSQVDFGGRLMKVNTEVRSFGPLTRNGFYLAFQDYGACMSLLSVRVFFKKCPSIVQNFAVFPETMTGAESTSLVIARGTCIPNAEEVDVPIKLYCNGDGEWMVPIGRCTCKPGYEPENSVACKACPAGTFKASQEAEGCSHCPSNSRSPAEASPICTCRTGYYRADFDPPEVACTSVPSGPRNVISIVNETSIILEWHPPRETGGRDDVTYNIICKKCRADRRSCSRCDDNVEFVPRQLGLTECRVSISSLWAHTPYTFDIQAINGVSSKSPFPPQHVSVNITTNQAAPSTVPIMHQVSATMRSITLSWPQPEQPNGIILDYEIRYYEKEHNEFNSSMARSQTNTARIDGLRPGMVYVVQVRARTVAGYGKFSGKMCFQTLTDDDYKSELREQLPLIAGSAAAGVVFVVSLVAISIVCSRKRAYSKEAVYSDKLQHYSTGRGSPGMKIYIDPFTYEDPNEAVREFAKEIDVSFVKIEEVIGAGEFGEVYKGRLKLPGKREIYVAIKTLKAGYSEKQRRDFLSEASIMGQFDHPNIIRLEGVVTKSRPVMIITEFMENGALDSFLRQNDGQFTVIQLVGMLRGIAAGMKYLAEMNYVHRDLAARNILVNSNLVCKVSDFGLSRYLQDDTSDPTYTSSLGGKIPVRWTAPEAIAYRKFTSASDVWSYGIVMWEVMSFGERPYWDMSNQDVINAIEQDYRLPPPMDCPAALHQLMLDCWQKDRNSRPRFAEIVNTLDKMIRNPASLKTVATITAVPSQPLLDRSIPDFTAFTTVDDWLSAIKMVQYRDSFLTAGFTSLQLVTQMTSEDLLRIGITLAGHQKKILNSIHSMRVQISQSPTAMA
Hck, sequence (P08631 whole entry, looked up): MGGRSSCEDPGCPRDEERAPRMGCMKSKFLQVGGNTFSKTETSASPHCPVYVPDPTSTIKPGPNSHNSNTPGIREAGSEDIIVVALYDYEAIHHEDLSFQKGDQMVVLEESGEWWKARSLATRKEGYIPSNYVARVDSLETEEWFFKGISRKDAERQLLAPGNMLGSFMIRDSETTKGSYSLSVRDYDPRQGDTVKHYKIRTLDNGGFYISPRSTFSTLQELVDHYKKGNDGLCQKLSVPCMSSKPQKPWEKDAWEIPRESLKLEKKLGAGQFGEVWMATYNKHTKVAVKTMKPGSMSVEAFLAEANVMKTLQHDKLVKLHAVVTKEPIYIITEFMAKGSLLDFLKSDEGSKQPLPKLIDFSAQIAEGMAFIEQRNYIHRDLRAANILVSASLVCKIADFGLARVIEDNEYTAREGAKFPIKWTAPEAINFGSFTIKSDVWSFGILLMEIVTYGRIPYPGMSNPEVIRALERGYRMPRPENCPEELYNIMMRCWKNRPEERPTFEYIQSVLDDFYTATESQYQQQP
FGFR1, sequence (P11362 whole entry, looked up): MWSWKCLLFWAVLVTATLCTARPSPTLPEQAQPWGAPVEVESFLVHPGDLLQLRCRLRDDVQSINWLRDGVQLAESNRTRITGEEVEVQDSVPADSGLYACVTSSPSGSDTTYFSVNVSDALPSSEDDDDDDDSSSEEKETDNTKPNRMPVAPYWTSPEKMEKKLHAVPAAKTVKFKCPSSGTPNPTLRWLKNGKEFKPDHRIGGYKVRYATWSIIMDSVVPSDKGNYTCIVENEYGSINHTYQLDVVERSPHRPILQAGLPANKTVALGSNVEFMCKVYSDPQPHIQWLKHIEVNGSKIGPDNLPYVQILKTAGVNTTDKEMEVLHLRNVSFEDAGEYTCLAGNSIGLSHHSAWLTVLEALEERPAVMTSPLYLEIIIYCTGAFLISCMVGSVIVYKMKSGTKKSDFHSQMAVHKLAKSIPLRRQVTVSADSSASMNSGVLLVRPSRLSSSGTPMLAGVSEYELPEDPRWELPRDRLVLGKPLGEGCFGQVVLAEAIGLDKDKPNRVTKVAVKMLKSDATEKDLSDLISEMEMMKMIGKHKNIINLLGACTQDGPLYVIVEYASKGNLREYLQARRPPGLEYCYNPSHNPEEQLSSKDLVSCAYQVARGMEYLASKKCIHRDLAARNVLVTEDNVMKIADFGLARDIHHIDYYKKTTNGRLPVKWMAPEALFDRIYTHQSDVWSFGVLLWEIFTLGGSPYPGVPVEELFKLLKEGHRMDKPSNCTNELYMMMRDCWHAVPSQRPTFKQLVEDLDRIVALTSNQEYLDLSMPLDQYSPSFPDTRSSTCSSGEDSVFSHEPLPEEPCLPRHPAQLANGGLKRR
Fes, sequence (P07332 whole entry, looked up): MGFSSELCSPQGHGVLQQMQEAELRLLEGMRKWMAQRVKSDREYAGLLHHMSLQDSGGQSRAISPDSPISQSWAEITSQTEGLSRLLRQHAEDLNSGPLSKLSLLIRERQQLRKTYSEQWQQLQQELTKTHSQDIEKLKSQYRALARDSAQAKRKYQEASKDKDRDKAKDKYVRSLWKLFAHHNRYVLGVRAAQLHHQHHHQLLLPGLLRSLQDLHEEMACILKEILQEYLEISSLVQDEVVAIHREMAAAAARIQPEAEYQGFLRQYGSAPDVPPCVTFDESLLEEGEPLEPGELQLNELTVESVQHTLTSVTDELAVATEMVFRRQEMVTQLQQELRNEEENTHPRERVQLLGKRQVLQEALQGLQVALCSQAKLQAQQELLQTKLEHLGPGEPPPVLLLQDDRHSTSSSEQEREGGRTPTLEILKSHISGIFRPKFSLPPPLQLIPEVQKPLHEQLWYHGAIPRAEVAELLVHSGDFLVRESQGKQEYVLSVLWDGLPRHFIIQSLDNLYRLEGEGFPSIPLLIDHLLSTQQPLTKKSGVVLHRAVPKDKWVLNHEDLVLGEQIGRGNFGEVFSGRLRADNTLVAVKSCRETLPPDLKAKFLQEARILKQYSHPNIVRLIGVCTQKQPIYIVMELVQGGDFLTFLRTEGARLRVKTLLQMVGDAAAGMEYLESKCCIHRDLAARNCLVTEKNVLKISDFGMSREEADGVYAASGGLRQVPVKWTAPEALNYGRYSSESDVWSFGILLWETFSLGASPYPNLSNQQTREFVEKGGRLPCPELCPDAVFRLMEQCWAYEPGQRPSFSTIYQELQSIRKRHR

Row | SH2 binding enrichment (SHP2-C SH2) | SH2 binding enrichment (c-Src SH2) | SH2 binding enrichment (Grb2 SH2) | Sequence | phosphorylation enrichment (EPHB1) | phosphorylation enrichment (Fes) | phosphorylation enrichment (FGFR3) | phosphorylation enrichment (Fyn) | phosphorylation enrichment (MERTK) | phosphorylation enrichment (AncSZ) | phosphorylation enrichment (FGFR1) | phosphorylation enrichment (Hck) | phosphorylation enrichment (c-Abl (mouse)) | phosphorylation enrichment (c-Src) | phosphorylation enrichment (Jak2) | phosphorylation enrichment (Fer (mouse)) | phosphorylation enrichment (EPHB2)
1 | 1.64 | 9.92 | 0.848 | YLRTGYSVPYG [TGM1_Y370] | 0.4 | 0.685 | 0.532 | 0.42 | 0.666 | 0.834 | 0.495 | 0.493 | 0.777 | 0.408 | 0.893 | 0.489 | 0.534
2 | 0.82 | 0.547 | 0.739 | QRALLYEDTLF [UNC13D_Y56_A59T_YF] | 15.4 | 4.74 | 0.853 | 1.49 | 9.24 | 1.58 | 0.599 | 1.65 | 1.13 | 1.95 | 1.68 | 17.9 | 13.9
3 | 1.04 | 0.54 | 1.29 | LITLVYGCSRQ [TMPRSS6_Y290_S288L] | 0.644 | 1.74 | 0.863 | 0.578 | 0.851 | 1.7 | 0.599 | 0.721 | 0.978 | 1.08 | 1.86 | 0.848 | 0.876
4 | 0.735 | 0.825 | 0.785 | PLKYLYPNIDK [STAT1_Y668] | 0.638 | 0.896 | 0.614 | 0.564 | 0.786 | 0.88 | 0.41 | 0.782 | 0.775 | 0.461 | 1 | 0.614 | 0.69
5 | 1.39 | 0.669 | 0.947 | EEALYYLTRVE [SET_Y119_H118Y] | 1.85 | 1.43 | 9.52 | 4.26 | 6.68 | 2.55 | 9.54 | 4.07 | 1.53 | 4.59 | 2.69 | 5.28 | 1.91
6 | 0.546 | 0.647 | 0.746 | YSPYDYQPCLA [TNS1_Y798] | 3.32 | 1.28 | 1.84 | 4.27 | 5.67 | 2.3 | 2.63 | 2.41 | 0.973 | 3.49 | 1.07 | 3.46 | 4.75
7 | 0.772 | 21.4 | 0.93 | EADRKYEEVAG [TPM3_Y163_R168G] | 0.655 | 1.07 | 0.685 | 0.508 | 0.48 | 1.12 | 0.6 | 0.523 | 0.613 | 0.452 | 0.998 | 0.464 | 0.578
8 | 0.902 | 0.64 | 0.788 | STTIHYNFMCN [TP53_Y234_C229S_YF] | 0.628 | 1.19 | 0.797 | 0.493 | 0.5 | 1 | 0.523 | 0.504 | 0.753 | 0.463 | 0.998 | 0.494 | 0.605
9 | 0.87 | 0.891 | 0.888 | KMKGDYYRSLA [YWHAG_Y130_Y133S] | 0.369 | 0.562 | 0.513 | 0.388 | 0.434 | 0.54 | 0.718 | 0.444 | 0.541 | 0.389 | 0.616 | 0.325 | 0.401
10 | 0.632 | 3.99 | 1.13 | HVKHNYECLVF [XRCC5_Y416_I412V_YF] | 1.36 | 1.17 | 0.928 | 0.584 | 0.948 | 1.23 | 0.558 | 0.581 | 1.23 | 0.754 | 1.71 | 1.09 | 1.16
11 | 0.557 | 0.444 | 0.732 | GLALRYLSDHS [VWF_Y1584] | 0.518 | 0.838 | 0.583 | 0.465 | 0.38 | 0.873 | 0.565 | 0.549 | 0.501 | 0.539 | 0.898 | 0.723 | 0.471

The next lines start with the sequence.

Row | Sequence | SH2 binding enrichment (SHP2-C SH2) | SH2 binding enrichment (c-Src SH2) | SH2 binding enrichment (Grb2 SH2) | phosphorylation enrichment (EPHB1) | phosphorylation enrichment (Fes) | phosphorylation enrichment (FGFR3) | phosphorylation enrichment (Fyn) | phosphorylation enrichment (MERTK) | phosphorylation enrichment (AncSZ) | phosphorylation enrichment (FGFR1) | phosphorylation enrichment (Hck) | phosphorylation enrichment (c-Abl (mouse)) | phosphorylation enrichment (c-Src) | phosphorylation enrichment (Jak2) | phosphorylation enrichment (Fer (mouse)) | phosphorylation enrichment (EPHB2)
12 | RVGNMYMRGLS [ABCG8_Y209_V210M] | 1.7 | 1.01 | 1.42 | 0.615 | 0.966 | 0.596 | 0.657 | 0.697 | 0.672 | 0.704 | 0.615 | 0.453 | 0.552 | 0.663 | 0.469 | 0.559
13 | NRKGKYFNVER [ANAPC4_Y469] | 0.51 | 0.299 | 0.498 | 0.367 | 0.575 | 0.451 | 0.386 | 0.411 | 0.478 | 0.473 | 0.695 | 0.631 | 0.487 | 0.379 | 0.351 | 0.448
14 | FKDGQYWIRGQ [ACSF3_Y466_R471Q] | 0.688 | 0.592 | 0.856 | 0.522 | 0.876 | 0.663 | 0.477 | 0.385 | 0.831 | 0.598 | 0.915 | 0.433 | 0.426 | 0.507 | 0.32 | 0.598
15 | GRQWNYVASML [KLHL4_Y552_S557L] | 1.33 | 0.945 | 1.25 | 0.405 | 0.809 | 0.565 | 0.434 | 0.367 | 0.731 | 0.382 | 0.418 | 0.591 | 0.391 | 0.737 | 0.366 | 0.481
16 | ERPGVHTNVVE [F11_Y608_Y608H] | 0.605 | 0.491 | 0.849 | 0.598 | 0.964 | 0.754 | 0.517 | 0.483 | 0.794 | 0.46 | 0.394 | 0.717 | 0.388 | 0.777 | 0.474 | 0.769
17 | EKKKFYDAKIE [CASP5_Y104_T106A_YF] | 0.783 | 0.453 | 0.686 | 0.4 | 0.803 | 0.534 | 0.369 | 0.349 | 0.751 | 0.431 | 0.468 | 0.718 | 0.466 | 1.05 | 0.435 | 0.409
18 | TLPAFYMENFS [GLB1_Y552_G554E] | 0.638 | 0.484 | 0.853 | 1.25 | 1.62 | 0.855 | 0.484 | 0.947 | 1.19 | 0.439 | 0.523 | 1.2 | 0.735 | 1.37 | 0.64 | 0.789
19 | KASVDYIRKLQ [MITF_Y360] | 0.899 | 0.454 | 0.838 | 0.393 | 0.651 | 0.482 | 0.336 | 0.32 | 0.765 | 0.364 | 0.351 | 0.503 | 0.345 | 0.589 | 0.351 | 0.409
20 | NPIGLYSAEIL [LDB3_Y202_T206I] | 0.852 | 0.415 | 0.635 | 3 | 0.879 | 0.562 | 0.839 | 6.37 | 0.751 | 0.419 | 1.04 | 0.568 | 1.11 | 0.876 | 3.44 | 2.6
21 | TLQRMYGCDVG [HLA-B_Y123_S121R] | 0.454 | 0.493 | 0.851 | 0.535 | 1.14 | 0.771 | 0.568 | 0.545 | 0.857 | 0.5 | 0.501 | 0.816 | 0.554 | 1 | 0.542 | 0.665
22 | QTPVLYTMLDH [MPZ_Y220_A221T] | 11.8 | 3.44 | 0.866 | 4.45 | 1.14 | 3.51 | 2.02 | 13.4 | 0.896 | 2.85 | 5.48 | 0.674 | 3 | 0.907 | 10.7 | 1.78
23 | VLTSKHRGGGG [HBA1_Y141_Y141H] | 0.751 | 0.823 | 1.02 | 0.318 | 0.396 | 0.419 | 0.527 | 0.677 | 0.486 | 0.464 | 0.322 | 0.418 | 0.344 | 0.332 | 0.222 | 0.225
24 | AKLKDYYIFNK [CCDC42_Y149] | 0.711 | 0.823 | 1 | 0.449 | 0.635 | 2.16 | 0.515 | 0.704 | 0.596 | 3.4 | 0.503 | 0.65 | 0.808 | 0.605 | 0.457 | 0.594
25 | AALSAYAPQRP [PTPRN2_Y249_A251P] | 0.549 | 0.504 | 0.713 | 0.54 | 1.08 | 0.584 | 0.733 | 0.543 | 0.853 | 0.605 | 0.529 | 0.791 | 0.521 | 0.803 | 0.541 | 0.527
26 | TFEPNYGTVKQ [RAPGEF6_Y1447_YF] | 0.794 | 0.523 | 0.826 | 0.582 | 0.607 | 0.63 | 1.36 | 0.442 | 1.01 | 0.471 | 0.822 | 0.522 | 1.22 | 0.488 | 0.881 | 1.53
27 | FADIAYNFRDG [PAH_Y166_H170D_YF] | 0.58 | 0.424 | 0.953 | 0.446 | 0.892 | 0.613 | 0.534 | 0.47 | 0.695 | 0.41 | 0.464 | 0.551 | 0.583 | 0.654 | 0.473 | 0.476
28 | KLLPEYPGILS [DHFR2_Y163_V166I] | 0.71 | 0.528 | 0.884 | 0.488 | 0.832 | 0.524 | 0.436 | 0.376 | 0.772 | 0.467 | 0.419 | 0.627 | 0.431 | 0.739 | 0.466 | 0.458
29 | DAKTIYDFTDT [PDK1_Y136_A134T] | 0.58 | 0.46 | 0.748 | 0.696 | 1.07 | 0.729 | 3.52 | 1.48 | 1.07 | 0.508 | 1.33 | 0.724 | 3.32 | 0.876 | 1.61 | 0.604
30 | MTFMFYRENLR [NLRP14_Y443_V441M_YF] | 1.22 | 0.567 | 0.909 | 0.691 | 1.28 | 0.784 | 0.537 | 0.526 | 1.45 | 0.545 | 0.518 | 0.879 | 0.445 | 1.32 | 0.705 | 0.724
31 | LQLLGDRPVYS [CHST6_Y358_Y358D] | 0.792 | 0.335 | 0.772 | 2.17 | 3.27 | 1.64 | 1.7 | 0.683 | 1.88 | 1.63 | 1.37 | 1.3 | 1.35 | 2.78 | 1.53 | 2.16
32 | EQKKNYNAMKK [SCN5A_Y1495_Y1494N] | 0.973 | 0.597 | 0.895 | 0.427 | 1.07 | 0.826 | 0.394 | 0.44 | 0.847 | 0.643 | 0.489 | 1.1 | 0.524 | 1.01 | 0.538 | 0.561
33 | EIIPFYGMSTY [FNDC3B_Y175] | 0.539 | 4.96 | 0.742 | 0.685 | 0.875 | 0.709 | 0.864 | 0.687 | 0.751 | 0.454 | 1.1 | 0.818 | 0.902 | 0.768 | 0.88 | 0.681
